These results are taken from article PMC10206189.

Test [1] concerns the target VHH14-Fc (huarizo). In words: BLI; Octet RED384, 25 °C, 1× Kinetics buffer; purified VHH-Fc captured on Protein G biosensors, mouse Plexin-B1 in solution (VHH14-Fc: 10-3.75 nM, 1800 s association, 7200 s dissociation; VHH15-Fc: 160-10 nM, 600 s, 510 s); global 1:1 fit.
Test [2] concerns the target VHH14-Fc (huarizo). In words: BLI; Octet RED384, 25 °C, 1× Kinetics buffer; VHH-Fc-loaded biosensors, mPlexin-B1 wildtype or H34Y P240Q at 400-6.25 nM, 300 s association, 600 s dissociation.

Sequence of VHH14-Fc (huarizo) (heavy, as listed by the source): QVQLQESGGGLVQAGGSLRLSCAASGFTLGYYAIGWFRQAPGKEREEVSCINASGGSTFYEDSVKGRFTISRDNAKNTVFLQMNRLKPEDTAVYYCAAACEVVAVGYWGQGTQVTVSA

B1: mouse Plexin-B1 (20–535)-6xHis (domain or fragment)
chain: LRSPLPAAFTANGTHLQHLARDPTTGTLYVGATNFLFQLSPGLQLEAVVSTGPVNDSRDCLPPVIPDECPQAQPTNNPNQLLLVSPEALVVCGSVHQGICELRSLGQIRQLLLRPERPGDTQYVAANDPAVSTVGLVAQGLVGEPLLFVGRGYTSRGVGGGIPPITTRALRPPDPQAAFSYEETAKLAVGRLSEYSHHFVSAFVRGASAYFLFLRRDLKAPSRAFRAYVSRVCLQDQHYYSYVELPLACQGGRYGLIQAAAVATSKEVARGDVLFAAFSSVAPPTVDWPLSASTGASGTSVLCAFPLDEVDQLANYTRDACYTREGRAENGTKVADIAYDVLSDCAQLPVDTPDAFPCGSDHTPSPMVSCVPLEATPILELPGVQLTAVAVTMEDGHTIAFLGDSQGQLHRVYLGPGRSAAPYSKQSIQPGSPVNRDLTFDGTFEHLYVATQTTLVKVPVAPCAQHLDCDSCLAHRDPYCGWCVLLGRCSRRSECSRDQGPEQWLWSFQPELGCLR
As for B1, the Kd is 0.237 nM in test [1] and 3.13 nM in test [2].

B2: mPlexin-B1 (20–535) H34Y P240Q (domain or fragment)
chain: LRSPLPAAFTANGTYLQHLARDPTTGTLYVGATNFLFQLSPGLQLEAVVSTGPVNDSRDCLPPVIPDECPQAQPTNNPNQLLLVSPEALVVCGSVHQGICELRSLGQIRQLLLRPERPGDTQYVAANDPAVSTVGLVAQGLVGEPLLFVGRGYTSRGVGGGIPPITTRALRPPDPQAAFSYEETAKLAVGRLSEYSHHFVSAFVRGASAYFLFLRRDLKAQSRAFRAYVSRVCLQDQHYYSYVELPLACQGGRYGLIQAAAVATSKEVARGDVLFAAFSSVAPPTVDWPLSASTGASGTSVLCAFPLDEVDQLANYTRDACYTREGRAENGTKVADIAYDVLSDCAQLPVDTPDAFPCGSDHTPSPMVSCVPLEATPILELPGVQLTAVAVTMEDGHTIAFLGDSQGQLHRVYLGPGRSAAPYSKQSIQPGSPVNRDLTFDGTFEHLYVATQTTLVKVPVAPCAQHLDCDSCLAHRDPYCGWCVLLGRCSRRSECSRDQGPEQWLWSFQPELGCLR
In the case of B2, in test [2], the Kd worked out at 255 nM.
